A short description of the series: total protein half-life in vivo (active degradation + dilution); higher = more stable protein.
Setting [1] is: E. coli NCM3722 delta-clpP delta-lon delta-hslV, growth: N-lim chemostat, doubling time 6 h.
Where [2] appears, read: E. coli NCM3722 delta-clpP, growth: N-lim chemostat, doubling time 6 h.
The mark [3] stands for this setting: E. coli NCM3722 delta-hslV, growth: N-lim chemostat, doubling time 6 h.
Where [4] appears, read: E. coli NCM3722 delta-lon, growth: N-lim chemostat, doubling time 6 h.
Where [5] appears, read: E. coli NCM3722 delta-smpB, growth: N-lim chemostat, doubling time 6 h.
The mark [6] stands for this setting: wild type E. coli NCM3722, growth: C-lim chemostat, doubling time 3 h.
Where [7] appears, read: wild type E. coli NCM3722, growth: C-lim chemostat, doubling time 6 h.
Setting [8] is: wild type E. coli NCM3722, growth: C-lim chemostat, doubling time 12 h.
Setting [9] is: wild type E. coli NCM3722, growth: N-lim chemostat, doubling time 6 h.
The mark [10] stands for this setting: wild type E. coli NCM3722, growth: N-lim chemostat, doubling time 12 h.
[11] abbreviates: wild type E. coli NCM3722, growth: P-lim chemostat, doubling time 6 h.
Setting [12] is: wild type E. coli NCM3722, growth: P-lim chemostat, doubling time 12 h.

± gives the standard deviation of the averaged measurements. Where only a bound is given, the exact number is not on record here.

For “MSFDSLGLSPDILRAVAEQGYREPTPIQQQAIPAVLEGRDLMASAQTGTGKTAGFTLPLLQHLITRQPHAKGRRPVRALILTPTRELAAQIGENVRDYSKYLNIRSLVVFGGVSINPQMMKLRGGVDVLVATPGRLLDLEHQNAVKLDQVEILVLDEADRMLDMGFIHDIRRVLTKLPAKRQNLLFSATFSDDIKALAEKLLHNPLEIEVARRNTASDQVTQHVHFVDKKRKRELLSHMIGKGNWQQVLVFTRTKHGANHLAEQLNKDGIRSAAIHGNKSQGARTRALADFKSGDIRVLVATDIAARGLDIEELPHVVNYELPNVPEDYVHRIGRTGRAAATGEALSLVCVDEHKLLRDIEKLLKKEIPRIAIPGYEPDPSIKAEPIQNGRQQRGGGGRGQGGGRGQQQPRRGEGGAKSASAKPAEKPSRRLGDAKPAGEQQRRRRPRKPAAAQ”, the “total protein half-life in vivo” value by setting is: under setting [1], 4.67 ± 1.2 h; under setting [2], 5.49 ± 0.3 h; under setting [3], 5.007 ± 0.03 h; under setting [4], 5.23 ± 1.5 h; under setting [5], 4.98 ± 0.23 h; under setting [6], 3.12 h. Also, the “total protein half-life in vivo” value was determined as 7.2 h under setting [7]; 14.7 ± 0.98 h under setting [8]; 5.3 ± 0.071 h under setting [9]; 8.71 ± 0.062 h under setting [10]; 4.83 ± 0.43 h under setting [11]; 9.31 ± 0.65 h under setting [12].
Turning to “MSIKLIAVDMDGTFLSDQKTYNRERFMAQYQQMKAQGIRFVVASGNQYYQLISFFPEIANEIAFVAENGGWVVSEGKDVFNGELSKDAFATVVEHLLTRPEVEIIACGKNSAYTLKKYDDAMKTVAEMYYHRLEYVDNFDNLEDIFFKFGLNLSDELIPQVQKALHEAIGDIMVSVHTGNGSIDLIIPGVHKANGLRQLQKLWGIDDSEVVVFGDGGNDIEMLRQAGFSFAMENAGSAVVAAAKYRAGSNNREGVLDVIDKVLKHEAPFDQ”, the “total protein half-life in vivo” value came to 4.81 ± 0.67 h under setting [1]; 2.026 ± 0.013 h under setting [2]; 1.78 ± 0.4 h under setting [3]; 2.53 ± 0.083 h under setting [4]; 1.92 ± 0.13 h under setting [5]; 2.44 ± 0.25 h under setting [6]. For the same sequence, the “total protein half-life in vivo” value was 3.96 ± 0.16 h under setting [7]; 6.88 ± 0.18 h under setting [8]; 2.08 ± 0.059 h under setting [9]; 2.73 ± 0.66 h under setting [10]; 2.7 ± 0.7 h under setting [11]; 7.59 ± 3.2 h under setting [12].
Turning to “MRVLGIETSCDETGIAIYDDEKGLLANQLYSQVKLHADYGGVVPELASRDHVRKTVPLIQAALKESGLTAKDIDAVAYTAGPGLVGALLVGATVGRSLAFAWDVPAIPVHHMEGHLLAPMLEDNPPEFPFVALLVSGGHTQLISVTGIGQYELLGESIDDAAGEAFDKTAKLLGLDYPGGPLLSKMAAQGTAGRFVFPRPMTDRPGLDFSFSGLKTFAANTIRDNGTDDQTRADIARAFEDAVVDTLMIKCKRALDQTGFKRLVMAGGVSANRTLRAKLAEMMKKRRGEVFYARPEFCTDNGAMIAYAGMVRFKAGATADLGVSVRPRWPLAELPAA”, the “total protein half-life in vivo” value turned out to be 4.38 ± 0.12 h under setting [1]; 3 ± 0.72 h under setting [2]; 3.73 ± 1.1 h under setting [3]; 4.84 ± 1.2 h under setting [4]; 3.17 ± 0.33 h under setting [5]; 2.618 ± 0.021 h under setting [6]. The “total protein half-life in vivo” value is, setting by setting: under setting [7], 4.72 ± 0.64 h; under setting [8], 7.77 ± 1.6 h; under setting [9], 3.33 ± 0.5 h; under setting [10], 4.16 ± 0.42 h; under setting [11], 4.07 ± 0.11 h; under setting [12], 8.07 ± 0.76 h.
For the sequence “MSEIKDVIVQGLWKNNSALVQLLGLCPLLAVTSTATNALGLGLATTLVLTLTNLTISTLRHWTPAEIRIPIYVMIIASVVSAVQMLINAYAFGLYQSLGIFIPLIVTNCIVVGRAEAFAAKKGPALSALDGFSIGMGATCAMFVLGSLREIIGNGTLFDGADALLGSWAKVLRVEIFHTDSPFLLAMLPPGAFIGLGLMLAGKYLIDERMKKRRAEAAAERALPNGETGNV”, the “total protein half-life in vivo” value stood at 2.66 ± 0.39 h under setting [1]; 3.52 h under setting [2]; 2.7 h under setting [3]; 2.38 ± 0.21 h under setting [4]; 4.72 ± 0.73 h under setting [5]; 2.72 ± 0.066 h under setting [6]. Moreover, the “total protein half-life in vivo” value came to 5.17 h under setting [8], 3.33 h under setting [9], 5.84 ± 1.2 h under setting [10] and 3.64 h under setting [11].
Regarding “MTPDELARLTGYSRQTINKWVRKEGWTTSPKPGVQGGKARLVHVNEQVREYIRNAERPEGQGEAPALSGDAPLEVLLVTLAKEMTPVEQKQFTSLLLREGIIGLLQRLGIRDSK [P0AD37]”, under setting [6], the “total protein half-life in vivo” value was determined as 1.89 h.
Regarding “MLFTIQLIIILICLFYGARKGGIALGLLGGIGLVILVFVFHLQPGKPPVDVMLVIIAVVAASATLQASGGLDVMLQIAEKLLRRNPKYVSIVAPFVTCTLTILCGTGHVVYTILPIIYDVAIKNNIRPERPMAASSIGAQMGIIASPVSVAVVSLVAMLGNVTFDGRHLEFLDLLAITIPSTLIGILAIGIFSWFRGKDLDKDEEFQKFISVPENREYVYGDTATLLDKKLPKSNWLAMWIFLGAIAVVALLGADSDLRPSFGGKPLSMVLVIQMFMLLTGALIIILTKTNPASISKNEVFRSGMIAIVAVYGIAWMAETMFGAHMSEIQGVLGEMVKEYPWAYAIVLLLVSKFVNSQAAALAAIVPVALAIGVDPAYIVASAPACYGYYILPTYPSDLAAIQFDRSGTTHIGRFVINHSFILPGLIGVSVSCVFGWIFAAMYGFL [P0ABN9]”, the “total protein half-life in vivo” value is, setting by setting: under setting [1], 7.71 h; under setting [2], 5.98 ± 1.5 h; under setting [3], 5.58 ± 0.66 h; under setting [9], 6.04 ± 0.11 h; under setting [10], 12.9 ± 1.5 h; under setting [12], over 16 h.
Take “MSKIIATLYAVMDKRPLRALSFVMALLLAGCMFWDPSRFAAKTSELEIWHGLLLMWAVCAGVIHGVGFRPQKVLWQGIFCPLLADIVLIVGLIFFFF [P0AAV0]”: the “total protein half-life in vivo” value under setting [4] turned out to be 5.39 h.
In the case of “MSALNSLPLPVVRLLAFFHEELSERRPGRVPQTVQLWVGCLLVILISMTFEIPFVALSLAVLFYGIQSNAFYTKFVAILFVVATVLEIGSLFLIYKWSYGEPLIRLIIAGPILMGCMFLMRTHRLGLVFFAVAIVAIYGQTFPAMLDYPEVVVRLTLWCIVVGLYPTLLMTLIGVLWFPSRAISQMHQALNDRLDDAISHLTDSLAPLPETRIEREALALQKLNVFCLADDANWRTQNAWWQSCVATVTYIYSTLNRYDPTSFADSQAIIEFRQKLASEINKLQHAVAEGQCWQSDWRISESEAMAARECNLENICQTLLQLGQMDPNTPPTPAAKPPSMAADAFTNPDYMRYAVKTLLACLICYTFYSGVDWEGIHTCMLTCVIVANPNVGSSYQKMVLRFGGAFCGAILALLFTLLVMPWLDNIVELLFVLAPIFLLGAWIATSSERSSYIGTQMVVTFALATLENVFGPVYDLVEIRDRALGIIIGTVVSAVIYTFVWPESEARTLPQKLAGTLGMLSKVMRIPRQQEVTALRTYLQIRIGLHAAFNACEEMCQRVALERQLDSEERALLIERSQTVIRQGRDLLHAWDATWNSAQALDNALQPDRAGQFADALEKYAAGLATALSRSPQITLEETPASQAILPTLLKQEQHVCQLFARLPDWTAPALTPATEQAQGATQ”, the “total protein half-life in vivo” value is 5.28 h under setting [1], over 8 h under setting [2] and 0.524 h under setting [6].
“MFYPDPFDVIIIGGGHAGTEAAMAAARMGQQTLLLTHNIDTLGQMSCNPAIGGIGKGHLVKEVDALGGLMAKAIDQAGIQFRILNASKGPAVRATRAQADRVLYRQAVRTALENQPNLMIFQQAVEDLIVENDRVVGAVTQMGLKFRAKAVVLTVGTFLDGKIHIGLDNYSGGRAGDPPSIPLSRRLRELPLRVGRLKTGTPPRIDARTIDFSVLAQQHGDNPMPVFSFMGNASQHPQQVPCYITHTNEKTHDVIRSNLDRSPMYAGVIEGVGPRYCPSIEDKVMRFADRNQHQIFLEPEGLTSNEIYPNGISTSLPFDVQMQIVRSMQGMENAKIVRPGYAIEYDFFDPRDLKPTLESKFIQGLFFAGQINGTTGYEEAAAQGLLAGLNAARLSADKEGWAPARSQAYLGVLVDDLCTLGTKEPYRMFTSRAEYRLMLREDNADLRLTEIGRELGLVDDERWARFNEKLENIERERQRLKSTWVTPSAEAAAEVNAHLTAPLSREASGEDLLRRPEMTYEKLTTLTPFAPALTDEQAAEQVEIQVKYEGYIARQQDEIEKQLRNENTLLPATLDYRQVSGLSNEVIAKLNDHKPASIGQASRISGVTPAAISILLVWLKKQGMLRRSA [P0A6U3]”: the “total protein half-life in vivo” value is, setting by setting: under setting [1], 5.157 ± 0.0054 h; under setting [2], 4.25 ± 0.18 h; under setting [3], 1.64 ± 0.088 h; under setting [4], 1.831 ± 0.014 h; under setting [5], 1.73 ± 0.065 h; under setting [6], 1.42 ± 0.081 h. Also, the “total protein half-life in vivo” value was 2.35 ± 0.068 h under setting [7]; 3.19 ± 1.2 h under setting [8]; 1.71 ± 0.14 h under setting [9]; 2.48 ± 0.15 h under setting [10]; 1.9 ± 0.13 h under setting [11]; 3.12 ± 0.84 h under setting [12].
“MTLNKTDRIVITLGKQIVHGKYVPGSPLPAEAELCEEFATSRNIIREVFRSLMAKRLIEMKRYRGAFVAPRNQWNYLDTDVLQWVLENDYDPRLISAMSEVRNLVEPAIARWAAERATSSDLAQIESALNEMIANNQDREAFNEADIRYHEAVLQSVHNPVLQQLSIAISSLQRAVFERTWMGDEANMPQTLQEHKALFDAIRHQDGDAAEQAALTMIASSTRRLKEIT”: the “total protein half-life in vivo” value came to 5.42 ± 0.19 h under setting [1]; 5.12 ± 0.7 h under setting [2]; 4.89 ± 0.076 h under setting [3]; 5.07 ± 0.42 h under setting [4]; 4.36 ± 0.15 h under setting [5]; 2.87 ± 0.24 h under setting [6]. Moreover, the “total protein half-life in vivo” value is, setting by setting: under setting [7], 5.54 ± 0.089 h; under setting [8], 9.94 ± 0.54 h; under setting [9], 4.79 ± 0.079 h; under setting [10], 7.99 ± 0.64 h; under setting [11], 4.902 ± 0.047 h; under setting [12], 10.15 ± 0.052 h.
On to “MAKTAAALHILVKEEKLALDLLEQIKNGADFGKLAKKHSICPSGKRGGDLGEFRQGQMVPAFDKVVFSCPVLEPTGPLHTQFGYHIIKVLYRN [P0A9L5]”, for which the “total protein half-life in vivo” value runs as follows: under setting [1], 6.6 ± 0.64 h; under setting [2], 4.65 ± 1.5 h; under setting [3], 4.743 ± 0.043 h; under setting [4], 6.25 ± 0.67 h; under setting [5], 6.01 ± 0.7 h; under setting [6], 3.05 ± 0.21 h. Further, the “total protein half-life in vivo” value reads like this: under setting [7], 5.57 ± 0.14 h; under setting [8], 9.11 ± 0.34 h; under setting [9], 4.22 ± 0.34 h; under setting [10], 7.37 ± 0.48 h; under setting [11], 4.54 ± 1.2 h; under setting [12], 10.6 ± 0.12 h.
Regarding “MWLLDQWAERHIAEAQAKGEFDNLAGSGEPLILDDDSHVPPELRAGYRLLKNAGCLPPELEQRREAIQLLDILKGIRHDDPQYQEVSRRLSLLELKLRQAGLSTDFLRGDYADKLLDKINDN”, the “total protein half-life in vivo” value was 6.32 h under setting [3]; 3.06 h under setting [6]; 5.56 h under setting [9]; 12.3 h under setting [10]; 6.15 h under setting [11].
